# Source: the DeepSol protein solubility set
# Experiment: soluble on expression in E. coli; label from the status in PepcDB or PDB records
row,Sequence,soluble on expression in E. coli
1,MRRRWYNNGGFQTLRMLEESSSEVTSSSALGLPPAMVMSPESLASPEYGGLELWGYDDGITYSMAQSLGTCTMEQQQPQPQQQPQQTQPLPSMPLPMPPTTPKSENESMSSGREELSPASSVNGCSTDGEARRQKKGPAPRQQEELCLVCGDRASGYHYNALTCEGCKGFFRRSVTKNAVYICKFGHACEMDMYMRRKCQECRLKKCLAVGMRPECVVPENQCAMKRKEKKAQREKDKLPVSTTTVDDHMPPIMQCDPPPPEAARIHEVVPRFLNEKLMEQNRLKNVPPLTANQKSLIARLVWYQEGYEQPSEEDLKRVTQTWQSDEDDEDSDMPFRQITEMTILTVQLIVEFAKGLPGFAKISQSDQITLLKACSSEVMMLRVARRYDAATDSVLFANNQAYTRDNYRKAGMAYVIEDLLHFCRCMYSMMMDNVHYALLTAIVIFSDRPGLEQPLLVEEIQRYYLNTLRVYILNQNSASPRCAVIFGKILGILTEIRTLGMQNSNMCISLKLKNRKLPPFLEEIWDVADVATTATPVAAEAPAPLAPAPPARPPATV,soluble
2,MPEPHAVLYVTNELSHIVKNEFLPIWKLTGDESLNDLWLENGKYATDVYAYGDVSKWTIRQLRGHGFIFISTHKNVQLADIIKTVDVRVPREVARSHDMKAFENEIGRRRIRMRKGFGDALRNYAFKMAIEFHGSEAETLNDANPRLHKIYGMPEIPPLYMEYAEIGTRFDDEPTDEKLVSMLHYIVYSAEEVHYIGCGDLRTLMQFKKRSPGRFRRVLWHVYDPIAPECSDPNVIVHNIMVDSKKDILKHMNFLKRVERPFIWDVSSDRSQMNDHEWETTRFAEDRLGEEIAYEMGGAFSSALIKHRIPNSKDEYHCISTYLFPQPGADADMYELRNFMRLRGYSHVDRHMHPDASVTKVVSRDVRKMVELYHGRDCGSFLKKRLFEHLHIVRKNGLLHESDEPRADLFYLTNRCNMGLEPSIYEVMKKSVIATAWVGRAPLYDYDDFALPRSTVMLNGSYRDIRILDGNGAILFLMWRYPDIVKKDLTYDPAWAMNFAVSLKEPIPDPPVPDISLCRFIGLRVESSVLRVRNPTLHETADELKRMGLDLSGHLYVTLMSGAYVTDLFWWFKMILDWSAQNREQKLRDLKRSAAEVIEWKEQMAERPWHVRNDLIAALREYKRKMGMREGASIDSWLELLRHL,soluble
3,MSLAALDPITPAGGGTWRFPANEPLRLDSGGVIEGLEIAYQTYGQLNADKSNAVLICHALTGDQHVASPHPTTGKPGWWQRLVGPGKPLDPARHFIICSNVIGGCMGSTGPASINPATGKTYGLSFPVITIADMVRAQAMLVSALGVETLFAVVGGSMGGMQVQQWAVDYPERMFSAVVLASASRHSAQNIAFHEVGRQAIMADPDWRGGAYAEHGVRPEKGLAVARMAAHITYLSEPALQRKFGRELQRDGLSWGFDADFQVESYLRHQGSSFVDRFDANSYLYITRAMDYFDIAASHGGVLAKAFTRARNVRFCVLSFSSDWLYPTAENRHLVRALTAAGARAAFAEIESDKGHDAFLLDEPVMDAALEGFLASAERDRGLVEGHHHHHH,soluble
4,MGDPKAFLNIPRQEAGYRPVSERITDYSQVEQTLNTNSRKLQASRCMDCGVPFCHWACPIGNKQPEWQDALFKGKWKEAYEVLSSTCDFPEFTGRICPALCEKSCVLKLSCDQPVTIRENEAAIVEAAFREGYIQVQHPQRNGKKVAVVGAGPAGLVVANQLNLKGYTVTLFDKDEAAGGLLRFGIPNFKLDKNVIDRRMKILAAEGIQFEMGVEIDVNHLPEGFDAYCICTGTPTARDLSIPGRELKGIHFALEMLAQQNRILEGQTFPKDKLVNAKGKKVLVIGGGDTGSDCIGTSVRQGATSVTQIEIMPKPPVGHNPSTPWPQWPVVFKTTSSHEEGCTRRWCLTSNQFLGKNGKVTGVEVEEVEWTPATDGGRPTMNLTGKKEVIEADMVLLAMGFLKPEQPKFAENVFLAGDAATGASLVVRAMAGGRKAAADIDHYLVKLEHHHHHH,soluble
5,MHHHHHHSSGRENLYFQGMEELIPLVNRLQDAFSALGQSCLLELPQIAVVGGQSAGKSSVLENFVGRDFLPRGSGIVTRRPLVLQLITSKAEYAEFLHCKGKKFTDFDEVRLEIEAETDRVTGMNKGISSIPINLRVYSPHVLNLTLIDLPGITKVPVGDQPPDIEYQIREMIMQFITRENCLILAVTPANTDLANSDALKLAKEVDPQGLRTIGVITKLDLMDEGTDARDVLENKLLPLRRGYVGVVNRSQKDIDGKKDIKAAMLAERKFFLSHPAYRHIADRMGTPHLQKVLNQQLTNHIRDTLPNFRNKLQGQLLS,soluble
6,GAMPPIFLPPPNYLFVRDVWKSNLYSEFAVIRQLVSQYNHVSISTEFVGTLARPIGTFRSKVDYHYQTMRANVDFLNPIQLGLSLSDANGNKPDNGPSTWQFNFEFDPKKEIMSTESLELLRKSGINFEKHENLGIDVFEFSQLLMDSGLMMDDSVTWITYHAAYDLGFLINILMNDSMPNNKEDFEWWVHQYMPNFYDLNLVYKIIQEFKNPQLQQSSQQQQQQQYSLTTLADELGLPRFSIFTTTGGQSLLMLLSFCQLSKLSMHKFPNGTDFAKYQGVIYGIDGDQ,soluble
7,MGSDKIHHHHHHMAKSKIDELMSVGIDIGKDTFHVVAFDPDGHLVMRKRIKRLALVATFEKLPRCVVGMEACLSAHFVSRTLRKMGFEPGIIPAIYVKPFIKGQKNDYNYAEAISEAALRPNLPVVPEKSQEQLDLQALHRVRSRLVSRRTASINQIRAFLIEQGITVRKGLRVLKNSFGKILDERKDEISPRMRTILIGLYGDWLWLDDRIDTVSKEIEQISRTEENCINVMTVPGIGPMISTAMVAAIGTGEAFGRGRDFAAWVGLVPRQYSTGGRTILGRITKRGSRYLRMLFVQAAKVILMRTNRWPDFSFGDWLIKAAERMNRNKLAVALANKLARMA,not soluble
8,MGSDKIHHHHHHMIISASRRTDIPAFYSQWFFNRIKEGYVLVPNPFNPKMISKVSLHPAVIDCIVFWTKNPAPMIDKLDHLQDYKYYFQFTLNPYGEKLENNLPSVNKRIDIFKRLSDKIGKEKVIWRYDPILTNEEYDVSFHKEAFAQIAYGLKDHTEKCMLGFIDHYQHIRTAVGQFNIQPLRKEEIEEIAVSFRNTINEYPAIQLDTCTSKVDLRHLGIPAGLCIDKELIERITGYPLLAKKDKNQRNVCNCIESIDIGTYESCLNGCIYCYAIKGNYNSVEYNTKKHDRNSPLLIGHPAEDDVVKEREMKSLRNNQYSLF,not soluble
9,MSLSADFSQPLADRLRPRTLDEYIGQLHLIEPGRPLYESIRRGRLHSMIFWGPPGTGKTTLARLVARHADAEFLPVSAVLSGVKEIREALARAVQFKAAGRRAILFVDEVHRFNKSQQDAFLAHVEDGTVSFIGATTENPSFEVNSALLSRARVYVLKALTEADLLGVIDRALSDAERGLGGRGLNMSDPVRMAYVRAADGDARRLLNLLEITADLLDAGQTVVSEEVARQVLASGTTRRFDKQGEEFYNQISALHKSVRGSSPDAALYWLCRMLDGGCDPLYLARRLVRIASEDIGNADPKALELCLNAWNAQERLGSPEGELALAQAVVYLAVAPKSNAVYEAYKAARADAARSGSLPVPLHLRNAPTGLMKGLDYGKGYRYAHDYPDAYVPGENYFPEGLERREYYRPVNRGMEIKIAEKLERLKALDKEADEGHHHHHH,not soluble
10,MGHHHHHHSHRGAGRVSRWPPPHWLEAWRVSPRPLSPLSPATFGRGFIAVAVIPGLWARGRGCSSDRLPRPAGPARRQFQAASLLTRGWGRAWPWKQILKELDECYERFSRETDGAQK,not soluble
11,MGSDKIHHHHHHCDDFLDSFPQDTVTNENFWKSKEDADKVLVDIYASLLPKDAIFFDEAMSDNAYLVWDWWGGAQQVANGSYTTSGEIPTNRWNGSYEVIRKCWFLLEGIEKIEDISEQDKNKIIGETYFMLAYNYYVLTSYFGDVPLVTKTLAIPESKQLVRTPKAEVVDYAINKLKEAAVMLEGLSQEKGRVTADACRFLIARMYLYNGDYSNVLETVKLLEGKYQLYREGDTPYEDLFSGVAENSCEVILSVVCDKRVGEIYTSHGGNGIMLLKGITGEDPYRGVTPSGSLVDAYPMADGRLIHEAGSSYDPKKPYEGRDPRFYQSIVYPTGQIKYLDVETGTVKERLYDPEDPTTVPEHQYNYSQPSATGYMWNKYIDYSVYAMNSVWDCTNDIIVFRYADVLLMKAEALLQTKGESAKEEVCNLIDQLRDRCSCGRVHRENYNSKDELMELLKNERRIELANEGLRYMDLIRWKDAEKNTIVTGVGLTGQMYGAYMRKDGVGKDDKTVDVDNTPRRYIETRYFNASKGYLFPIPQKERDLNPNLTQNPNW,not soluble
12,MSLRSQQSGILGVIVADIRNPYFTALIRAVEEVAYRAGMRVTLCNTDEDPEREALYLELMQEERITGLIFAPTRVTVGRMHELALDYPTVLVDRAGPGSRYDSVVLDNGAAMAELVAHLQAQGYRRIGGLFGSTSTTAAERRDGYLAAMRAQGLQPDYREVAPTAEAAIAELGAWLANDQRPEAIVTSNSLLLMGALKAARTAGLRLPQDLALAGFDNERWTDLVEPGITVVEQPVEDMGRAAMSLLLERLSNRQLPIRRLVMTGRCVVRGSTAEGHHHHHH,soluble
13,MNTINANDLKTRGIAAIEAQLEEQPEAIIAVRGKDRYVVMQLEHYYYLRECELTAALAETRADLAAGRCEQESPEAHLARLDTLK,not soluble
14,MSLTQNIRPLPQFKYHPKPLETGAFEQDKTVECDCCEQQTSVYYSGPFYCVDEVEHLCPWCIADGSAAEKFAGSFQDDASIEGVEFEYDEEDEFAGIKNTYPDEMLKELVERTPGYHGWQQEFWLAHCGDFCVFIGYVGWNDIKDRLDEFANLEEDCENFGIRNSDLAKCLQKGGHCQGYLFRCLHCGKLRLWGDFSEGGSHHHHHH,soluble
15,MSLADPGREGHLEQRILQVLTEAGSPVKLAQLVKECQAPKRELNQVLYRMKKELKVSLTSPATWCLGGTDPEGEGPAELALSSPAERPQQHAATIPETPGPQFSQQREEDIYRFLKDNGPQRALVIAQALGMRTAKDVNRDLYRMKSRHLLDMDEQSKAWTIYRPEDSGREGHHHHHH,soluble
16,MKRNAWEVYGEVLKTARELGLEGEEQEVAKALLAWPKERFHALAARVGLKAKYLRHDLLPIAFLPEPLREALQGGLPLREAHRLHRLLKRGELSLQDLTGKDPKALMALPARPGEVDPRLPVWFFPPEPWEEALPMAVARALVQLYTREGELVLDPMAGRGTVVEAARALDRRAWGGDIAPRGPLVERADIRDLPRRFRKEAALVVLHPPTFSTWLREEGYREEAEERYGEYIRHISSFLDLCRPTLAPGGKLVLVARPRRTLTPKDLEAGHDFFLAPWERALAEADFRPLSYHLAVSQDGRQDWHLFVGEPRG,soluble
17,TMITNSRGSVDLQPSLTGVFPSGLIETKVSAAKITENYQFDSRIRLNSIGFIPNHSKKATIAANCSTFYVVKEDGTIVYTGTATSMFDNDTKETVYIADFSSVNEEGTYYLAVPGVGKSVNFKIAMNVYEDAFKTAMLGMYLLRCGTSVSATYNGIHYSHGPCHTNDAYLDYINGQHTKKDSTKGWHDAGDYNKYVVNAGITVGSMFLAWEHFKDQLEPVALEIPEKNNSIPDFLDELKYEIDWILTMQYPDGSGRVAHKVSTRNFGGFIMPENEHDERFFVPWSSAATADFVAMTAMAARIFRPYDPQYAEKCINAAKVSYEFLKNNPANVFANQSGFSTGEYATVSDADDRLWAAAEMWETLGDEEYLRDFENRAAQFSKKIEADFDWDNVANLGMFTYLLSERPGKNPALVQSIKDSLLSTADSIVRTSQNHGYGRTLGTTYYWGCNGTVVRQTMILQVANKISPNNDYVNAALDAISHVFGRNYYNRSYVTGLGINPPMNPHDRRSGADGIWEPWPGYLVGGGWPGPKDWVDIQDSYQTNEIAINWNAALIYALAGFVNYNSPQNEVLYGDVNDDGKVNSTDLTLLKRYVLKAVSTLPSSKAEKNADVNRDGRVNSSDVTILSRYLIRVIEKLPI,soluble
